Drawing on the RNAGym collection of RNA variant scans (doi:10.7554/elife.90254), this text covers self-cleavage for 167 variants.

The chains are these.
B1: LINE1-mini (parent)
chain: GGCAGAGCUCAACACAGCGUGGCAAAGUGGCUGUGGCUAGACUGCC

Variants of B1 are the subject of this data set. The experiment in a line: self-cleavage, relative activity (ratio to wild type); higher = more cleavage; in vitro, sequencing; the parent is a self-cleaving ribozyme.
In the case of A6U A41G, the self-cleavage came to 2.27.

For the variant A6U A41U, the self-cleavage came to 0.09.

Take A6U A41C: the self-cleavage came out at 0.07.

As for A6U A39G, the self-cleavage stood at 0.04.

Regarding A6U A39U, the self-cleavage came to 0.35.

Regarding A6U A39C, the self-cleavage came out at 0.51.

As for A6G G36C, the self-cleavage amounted to 0.09.

Take A6G G36A: the self-cleavage was found to be 0.13.

Turning to A6G G36U, the self-cleavage is 0.04.

In the case of A6G A39G, the self-cleavage stood at 0.03.

Turning to A6G A39U, the self-cleavage worked out at 0.08.

Take A6G A39C: the self-cleavage amounted to 0.15.

As to G7A A12U, the self-cleavage was 0.15.

As for G7A A12G, the self-cleavage amounted to 0.05.

As to G7A A12C, the self-cleavage was found to be 0.02.

Turning to A6G C23U, the self-cleavage worked out at 0.1.

On to A6G C23A, for which the self-cleavage was 0.11.

Turning to A6G C23G, the self-cleavage worked out at 0.1.

Take A6G U9G: the self-cleavage was 0.17.

Consider A6G U9A, for which the self-cleavage amounted to 0.12.

For the variant A6G U9C, the self-cleavage worked out at 0.02.

On to A6G U32G, for which the self-cleavage amounted to 0.07.

As for A6G U32C, the self-cleavage came to 0.07.

With A6G U32A, the self-cleavage stood at 0.07.

In the case of A6U A24G, the self-cleavage stood at 0.94.

Take A6U A24C: the self-cleavage stood at 1.21.

In the case of A6U A24U, the self-cleavage was 1.6.

As to A6G G19A, the self-cleavage was determined as 0.09.

Regarding A6G G19U, the self-cleavage stood at 0.15.

On to A6G G19C, for which the self-cleavage was 0.05.

With G7A A41U, the self-cleavage came out at 0.18.

With G7A A41G, the self-cleavage was determined as 0.12.

With G7A A41C, the self-cleavage came out at 0.21.

Turning to G7A C10G, the self-cleavage is 0.02.

On to G7A C10A, for which the self-cleavage is 0.05.

As for A6C U34C, the self-cleavage worked out at 0.11.

In the case of A6C U34A, the self-cleavage is 0.05.

With A6C U34G, the self-cleavage came to 0.25.

For G7A A26C, the self-cleavage turned out to be 0.18.

For G7A A26U, the self-cleavage was 0.21.

For G7A A26G, the self-cleavage is 0.24.

Turning to A6U C15A, the self-cleavage is 0.16.

Take A6U C15U: the self-cleavage turned out to be 0.92.

As to A6U C15G, the self-cleavage turned out to be 0.07.

A6U U9C: the self-cleavage was determined as 0.08.

Turning to A6U U9G, the self-cleavage was determined as 0.15.

Take A6U U9A: the self-cleavage was determined as 0.17.

As to A6U A16U, the self-cleavage came to 0.11.

A6U A16G: the self-cleavage was 0.14.

With A6U A16C, the self-cleavage amounted to 0.09.

Take G7A A25C: the self-cleavage amounted to 0.14.

Turning to G7A A25U, the self-cleavage stood at 0.25.

As for G7A A25G, the self-cleavage came out at 0.12.

In the case of A6G G7A, the self-cleavage worked out at 0.11.

In the case of A6G G7U, the self-cleavage is 0.05.

On to A6G G7C, for which the self-cleavage amounted to 0.14.

Regarding A6C G36U, the self-cleavage was 0.06.

For A6C G36C, the self-cleavage was 0.16.

For A6C G36A, the self-cleavage was 0.31.

A6U C8U: the self-cleavage was found to be 0.29.

As to A6U C8A, the self-cleavage amounted to 0.27.

For A6U C8G, the self-cleavage was 0.15.

Regarding A6U A26C, the self-cleavage amounted to 0.56.

For the variant A6U A26G, the self-cleavage was determined as 0.31.

For the variant A6U A26U, the self-cleavage was 0.85.

A6C G19A: the self-cleavage was found to be 1.02.

For A6C G19U, the self-cleavage was 0.56.

With A6C G19C, the self-cleavage was 0.3.

For A6G C45G, the self-cleavage is 0.18.

Take A6G C45U: the self-cleavage was found to be 0.11.

Take A6G C45A: the self-cleavage was determined as 0.15.

On to A6C G7U, for which the self-cleavage worked out at 0.1.

In the case of A6C G7C, the self-cleavage amounted to 0.08.

Regarding G7A A16G, the self-cleavage came out at 0.28.

Regarding G7A A16C, the self-cleavage is 0.13.

Consider G7A A16U, for which the self-cleavage is 0.32.

As to A6C G29U, the self-cleavage is 0.61.

Consider A6C G29C, for which the self-cleavage stood at 0.36.

For A6C G29A, the self-cleavage stood at 0.7.

Regarding A6G A11C, the self-cleavage amounted to 0.02.

A6G A11G: the self-cleavage came out at 0.02.

Take A6G A11U: the self-cleavage was 0.02.

As for A6G A25U, the self-cleavage came to 0.1.

For the variant A6G A25G, the self-cleavage is 0.07.

On to A6G A25C, for which the self-cleavage came to 0.1.

In the case of A6U G27U, the self-cleavage was determined as 0.58.

Consider A6U G27C, for which the self-cleavage worked out at 0.38.

As for A6U G27A, the self-cleavage was 0.42.

As for A6U U34C, the self-cleavage was 0.12.

For A6U U34G, the self-cleavage amounted to 0.28.

As for A6U U34A, the self-cleavage was 0.06.

As for A6G G33C, the self-cleavage stood at 0.03.

Turning to A6G G33A, the self-cleavage came out at 0.06.

In the case of A6G G33U, the self-cleavage amounted to 0.07.

For the variant A6U U28A, the self-cleavage turned out to be 0.4.

In the case of A6U U28G, the self-cleavage worked out at 0.6.

Regarding A6U U28C, the self-cleavage is 0.74.

With A6G C31U, the self-cleavage stood at 0.03.

Take A6G C31G: the self-cleavage was found to be 0.05.

Take A6G C31A: the self-cleavage was found to be 0.07.

For A6C G44U, the self-cleavage worked out at 0.18.

Regarding A6C G44A, the self-cleavage is 0.22.

With A6C G44C, the self-cleavage was 0.24.

On to A6U G30U, for which the self-cleavage worked out at 1.27.

Regarding A6U G30A, the self-cleavage stood at 1.65.

Turning to A6U G30C, the self-cleavage is 1.36.

Regarding A6U G44U, the self-cleavage stood at 0.54.

Turning to A6U G44C, the self-cleavage stood at 0.75.

With A6U G44A, the self-cleavage came out at 0.64.

Turning to A6G A14G, the self-cleavage amounted to 0.07.

As for A6G A14C, the self-cleavage came out at 0.14.

Regarding A6G A14U, the self-cleavage stood at 0.05.

A6C U43C: the self-cleavage was determined as 0.08.

For the variant A6C U43G, the self-cleavage was determined as 0.03.

With A6C U43A, the self-cleavage was determined as 0.13.

For the variant A6G A41G, the self-cleavage stood at 0.39.

Take A6G A41C: the self-cleavage was determined as 0.15.

As to A6G A41U, the self-cleavage was 0.1.

Turning to A6G C15A, the self-cleavage was 0.05.

With A6G C15U, the self-cleavage came to 0.17.

A6G C15G: the self-cleavage is 0.02.

For A6C U28A, the self-cleavage amounted to 0.64.

As for A6C U28G, the self-cleavage was 0.2.

For A6C U28C, the self-cleavage was 0.36.

As to A6U U43G, the self-cleavage was determined as 0.08.

A6U U43C: the self-cleavage amounted to 0.51.

With A6U U43A, the self-cleavage worked out at 0.13.

As for A6U A14C, the self-cleavage turned out to be 0.11.

For A6U A14G, the self-cleavage is 0.1.

For the variant A6U A14U, the self-cleavage is 0.27.

In the case of A6C U9C, the self-cleavage is 0.03.

In the case of A6C U9G, the self-cleavage came out at 0.11.

A6C U9A: the self-cleavage turned out to be 0.18.

For the variant A6U C23G, the self-cleavage worked out at 0.46.

Consider A6U C23A, for which the self-cleavage was 0.9.

As to A6U C23U, the self-cleavage stood at 0.89.

In the case of G7A A14G, the self-cleavage was 0.24.

Regarding G7A A14U, the self-cleavage turned out to be 0.16.

As for G7A A14C, the self-cleavage was found to be 0.5.

Take A6C G21U: the self-cleavage worked out at 0.44.

On to A6C G21A, for which the self-cleavage stood at 1.34.

A6C G21C: the self-cleavage was found to be 0.42.

Take A6C U38A: the self-cleavage was found to be 0.28.

Take A6C U38G: the self-cleavage stood at 0.02.

On to A6C U38C, for which the self-cleavage was 0.21.

Take A6C U32C: the self-cleavage came to 0.05.

Consider A6C U32G, for which the self-cleavage was 0.05.

As for A6C U32A, the self-cleavage turned out to be 0.03.

With A6U C45A, the self-cleavage worked out at 0.66.

Take A6U C45G: the self-cleavage was found to be 0.3.

For the variant A6U C45U, the self-cleavage worked out at 1.18.

In the case of A6U G29C, the self-cleavage is 0.34.

Consider A6U G29A, for which the self-cleavage is 0.79.

For A6U G29U, the self-cleavage stood at 0.66.

As for A6U A12G, the self-cleavage amounted to 0.04.

For the variant A6U A12C, the self-cleavage amounted to 0.04.

A6U A12U: the self-cleavage came to 0.17.

Take A6C G17A: the self-cleavage came out at 0.17.

As for A6C G17C, the self-cleavage is 1.47.

As for A6C G17U, the self-cleavage was found to be 0.11.

As to A6U G17A, the self-cleavage came out at 0.11.

Take A6U G17C: the self-cleavage turned out to be 0.59.

Take A6U G17U: the self-cleavage turned out to be 0.26.

With A6G G29C, the self-cleavage was 0.07.

As to A6G G29A, the self-cleavage worked out at 0.08.

As for A6G G29U, the self-cleavage was 0.09.

As to A6G G17A, the self-cleavage was determined as 0.09.
